Laboratory results reported in patent US20210380703A1 (RIGEL PHARMACEUTICALS, published 2021).

B1: 375_D10 (antibody, V domains shown)
VH: EVQLLESGGGLVQPGGSLRLSCAASGFTFSSYSMNWVRQAPGKGLEWVAGINYNGGYTSYADSVKGRFTISRDNSKNTLYLQMNSLRAEDTAVYYCARGANWHDTALDYWGQGTLVTVSS
VL: DIQMTQSPSSLSASVGDRVTITCRASQSILTYVNWYQQKPGKAPKLLIYAATSRASGVPSRFSGSGSGTDFTLTISSLQPEDFATYYCQQSDDSPLTFGGGTKVEIK
notes: Group III
B2: 375_F08 (antibody, V domains shown)
VH: EVQLLESGGGLVQPGGSLRLSCAASGFTFSSYGMNWVRQAPGKGLEWVSSINYNSGYKSYADSVKGRFTISRDNSKNTLYLQMNSLRAEDTAVYYCARGANWHDTHLDYWGQGTLVTVSS
VL: DIQMTQSPSSLSASVGDRVTITCRASQSILSYLNWYQQKPGKAPKLLIYAATSRHSGVPSRFSGSGSGTDFTLTISSLQPEDFATYYCQQSYDNPLTFGGGTKVEIK
notes: Group III
B3: 376_B10 (antibody, V domains shown)
VH: EVQLLESGGGLVQPGGSLRLSCAASGFTFSDYSMNWVRQAPGKGLEWVAGINYNGGYKGYADSVKGRFTISRDNSKNTLYLQMNSLRAEDTAVYYCARGANWHDTALDYWGQGTLVTVSS
VL: DIQMTQSPSSLSASVGDRVTITCRASQSILSYLNWYQQKPGKAPKLVIYAATSLASGVPSRFSGSGSGTDFTLTISSLQPEDFATYYCQQSYSTPLTFGGGTKVEIK
notes: Group III
B4: 375_E05 (antibody, V domains shown)
VH: EVQLLESGGGLVQPGGSLRLSCAASGFTFSSYSMNWVRQAPGKGLEWVAGINYNGGYTSYADSVKGRFTISRDNSKNTLYLQMNSLRAEDTAVYYCARGANWHDTALDYWGQGTLVTVSS
VL: DIQMTQSPSSLSASVGDRVTITCRASQSILSYLNWYQQKPGKAPKLVIYAATSLASGVPSRFSGSGSGTDFTLTISSLQPEDFATYYCQQSYSSPLTFGGGTKVEIK
notes: Group III
B5: 376_C08 (antibody, V domains shown)
VH: EVQLLESGGGLVQPGGSLRLSCAASGFTFDSYSMNWVRQAPGKGLEWVAGINYNSGYTGYADSVKGRFTISRDNSKNTLYLQMNSLRAEDTAVYYCARGANWHDTHLDYWGQGTLVTVSS
VL: not shown
notes: Group III
B6: 375_F07 (antibody, V domains shown)
VH: EVQLLESGGGLVQPGGSLRLSCAASGFTFSDYSMNWVRQAPGKGLEWVSNINYNGGYTGYADSVKGRFTISRDNSKNTLYLQMNSLRAEDTAVYYCARGANWHDTALDYWGQGTLVTVSS
VL: DIQMTQSPSSLSASVGDRVTITCRASQSILSYLNWYQQKPGKAPKLLIYAATSRASGVPSRFSGSGSGTDFTLTISSLQPEDFATYYCQQSYDSPLTFGGGTKVEIK
notes: Group III
B7: 375_H07 (antibody, V domains shown)
VH: EVQLLESGGGLVQPGGSLRLSCAASGFTFSSYSMNWVRQAPGKGLEWVAGINYNGGYTSYADSVKGRFTISRDNSKNTLYLQMNSLRAEDTAVYYCARGANWHDTALDYWGQGTLVTVSS
VL: DIQMTQSPSSLSASVGDRVTITCRASQSILSYLNWYQQKPGKAPKLLIYAATSLASGVPSRFSGSGSGTDFTLTISSLQPEDFATYYCQQSYSSPLTFGGGTKVEIK
notes: Group III
B8: 375_G05 (antibody, V domains shown)
VH: EVQLLESGGGLVQPGGSLRLSCAASGFTFSSYSMNWVRQAPGKGLEWVAGINYNGGYTSYADSVKGRFTISRDNSKNTLYLQMNSLRAEDTAVYYCARGANWHDTALDYWGQGTLVTVSS
VL: DIQMTQSPSSLSASVGDRVTITCRASQSIVSYLNWYQQKPGKAPKLLIYAVTSRASGVPSRFSGSGSGTDFTLTISSLQPEDFATYYCQQSYDSPLTFGGGTKVEIK
notes: Group III
B9: 376_B03 (antibody, V domains shown)
VH: EVQLLESGGGLVQPGGSLRLSCAASGFTFSSYSMNWVRQAPGKGLEWVAGINYNSGYKSYADSVKGRFTISRDNSKNTLYLQMNSLRAEDTAVYYCARGANWHDTALDYWGQGTLVTVSS
VL: DIQMTQSPSSLSASVGDRVTITCRASQSILSYVNWYQQKPGKAPKLVIYAVTSRHSGVPSRFSGSGSGTDFTLTISSLQPEDFATYYCQQSYDSPLTFGGGTKVEIK
notes: Group III
B10: 375_E02 (antibody, V domains shown)
VH: EVQLLESGGGLVQPGGSLRLSCAASGFTFSDYSMNWVRQAPGKGLEWVAGINYNGGYTSYADSVKGRFTISRDNSKNTLYLQMNSLRAEDTAVYYCARGANWHDTALDYWGQGTLVTVSS
VL: DIQMTQSPSSLSASVGDRVTITCRASQSILTYLNWYQQKPGKAPKLLIYAATSRASGVPSRFSGSGSGTDFTLTISSLQPEDFATYYCQQSYSSPLTFGGGTKVEIK
notes: Group III
B11: 376_C04 (antibody, V domains shown)
VH: EVQLLESGGGLVQPGGSLRLSCAASGFTFSSYGMNWVRQAPGKGLEWVSNINYNGGYTGYADSVKGRFTISRDNSKNTLYLQMNSLRAEDTAVYYCARGANWHDTALDYWGQGTLVTVSS
VL: DIQMTQSPSSLSASVGDRVTITCRASQSILSYVNWYQQKPGKAPKLLIYAVTSRHSGVPSRFSGSGSGTDFTLTISSLQPEDFATYYCQQSYDNPLTFGGGTKVEIK
notes: Group III
B12: 375_G04 (antibody, V domains shown)
VH: EVQLLESGGGLVQPGGSLRLSCAASGFTFSSYGMNWVRQAPGKGLEWVASINYNSGYTGYADSVKGRFTISRDNSKNTLYLQMNSLRAEDTAVYYCARGANWHDTHLDYWGQGTLVTVSS
VL: DIQMTQSPSSLSASVGDRVTITCRASQSIVSYVNWYQQKPGKAPKLLIYAATSLASGVPSRFSGSGSGTDFTLTISSLQPEDFATYYCQQSYDSPLTFGGGTKVEIK
notes: Group III
B13: 376_A03 (antibody, V domains shown)
VH: EVQLLESGGGLVQPGGSLRLSCAASGFTFSSYGMNWVRQAPGKGLEWVAGINYNGGYTGYADSVKGRFTISRDNSKNTLYLQMNSLRAEDTAVYYCARGANWHDTALDYWGQGTLVTVSS
VL: DIQMTQSPSSLSASVGDRVTITCRASQSILTYLNWYQQKPGKAPKLLIYAATSRASGVPSRFSGSGSGTDFTLTISSLQPEDFATYYCQQSYSTPLTFGGGTKVEIK
notes: Group III
B14: 375_E06 (antibody, V domains shown)
VH: EVQLLESGGGLVQPGGSLRLSCAASGFTFSSYSMNWVRQAPGKGLEWVSGINYNGGYKSYADSVKGRFTISRDNSKNTLYLQMNSLRAEDTAVYYCARGANWHDTALDYWGQGTLVTVSS
VL: DIQMTQSPSSLSASVGDRVTITCRASQSILSYLNWYQQKPGKAPKLVIYAATSRASGVPSRFSGSGSGTDFTLTISSLQPEDFATYYCQQSYDSPLTFGGGTKVEIK
notes: Group III
B15: 376_E02 (antibody, V domains shown)
VH: EVQLLESGGGLVQPGGSLRLSCAASGFTFSSYSMNWVRQAPGKGLEWVAGINYNGGYKGYADSVKGRFTISRDNSKNTLYLQMNSLRAEDTAVYYCARGANWHDTALDYWGQGTLVTVSS
VL: DIQMTQSPSSLSASVGDRVTITCRASQSILSYVNWYQQKPGKAPKLVIYAATSRHSGVPSRFSGSGSGTDFTLTISSLQPEDFATYYCQQSDNTPLTFGGGTKVEIK
notes: Group III
B16: 375_H05 (antibody, V domains shown)
VH: EVQLLESGGGLVQPGGSLRLSCAASGFTFSSYSMNWVRQAPGKGLEWVSNINYNGGYTGYADSVKGRFTISRDNSKNTLYLQMNSLRAEDTAVYYCARGANWHDTALDYWGQGTLVTVSS
VL: DIQMTQSPSSLSASVGDRVTITCRASQSILSYVNWYQQKPGKAPKLLIYAATSRASGVPSRFSGSGSGTDFTLTISSLQPEDFATYYCQQSYDTPLTFGGGTKVEIK
notes: Group III
B17: 375_F02 (antibody, V domains shown)
VH: EVQLLESGGGLVQPGGSLRLSCAASGFTFSSYSMNWVRQAPGKGLEWVASINYNSGYTSYADSVKGRFTISRDNSKNTLYLQMNSLRAEDTAVYYCARGANWHDTHLDYWGQGTLVTVSS
VL: DIQMTQSPSSLSASVGDRVTITCRASQSILSYLNWYQQKPGKAPKLLIYAATSRASGVPSRFSGSGSGTDFTLTISSLQPEDFATYYCQQSYDSPLTFGGGTKVEIK
notes: Group III
B18: 376_D07 (antibody, V domains shown)
VH: EVQLLESGGGLVQPGGSLRLSCAASGFTFDSYSMNWVRQAPGKGLEWVSGINYNGGYTSYADSVKGRFTISRDNSKNTLYLQMNSLRAEDTAVYYCARGANWHDTHLDYWGQGTLVTVSS
VL: not shown
notes: Group III
B19: 375_E03 (antibody, V domains shown)
VH: EVQLLESGGGLVQPGGSLRLSCAASGFTFSDYSMNWVRQAPGKGLEWVANINYNGGYTGYADSVKGRFTISRDNSKNTLYLQMNSLRAEDTAVYYCARGANWHDTHLDYWGQGTLVTVSS
VL: DIQMTQSPSSLSASVGDRVTITCRASQSILTYLNWYQQKPGKAPKLVIYAATSLASGVPSRFSGSGSGTDFTLTISSLQPEDFATYYCQQSYDNPLTFGGGTKVEIK
notes: Group III

What was measured:
[1] = molecular target: T1, biotinylated goat anti-human kappa light chain; assay: ELISA, positive control
T1 construct: positive control of the ELISA
Procedure, shortened: (§1)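 Binding signal was read by ELISA after ACVR2A-specific monoclonal antibodies were tested against human ACVR2A and mouse ACVR2A, with human Fc as the negative control.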

human ACVR2A = molecular target: T2, human ACVR2A (human, UniProt P27037 20-135, limits assumed); assay: ELISA
T2 construct: coated antigen of the initial ELISA; also called activin receptor, type II A
T2 sequence (P27037 20-135 limits assumed): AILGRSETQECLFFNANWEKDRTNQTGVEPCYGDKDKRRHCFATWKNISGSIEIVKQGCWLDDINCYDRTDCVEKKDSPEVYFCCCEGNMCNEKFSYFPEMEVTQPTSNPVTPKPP
Procedure, shortened: as §1

mouse ACVR2A = molecular target: T3, mouse ACVR2A (mouse, UniProt P27038 20-135, limits assumed); assay: ELISA
T3 construct: coated antigen of the initial ELISA
T3 sequence (P27038 20-135 limits assumed): as the sequence (P27037 20-135 limits assumed) above, with K20R, V73I counted along it
Procedure, shortened: as §1
Also: test concentration or dose not given here.

Binder	optical density [1] [OD]	optical density (human ACVR2A) [OD]	optical density (mouse ACVR2A) [OD]
B1	3.21	3.26	3.45
B2	3.31	3.5	3.58
B3	3.46	3.6	3.67
B4	3.28	3.67	3.71
B5	3.46	3.61	3.63
B6	3.22	3.67	3.71
B7	3.27	3.3	3.29
B8	3.26	3.71	3.75
B9	3.52	3.68	3.67
B10	3.2	3.58	3.69
B11	3.4	3.63	3.65
B12	3.19	2.91	3.29
B13	3.23	3.61	3.65
B14	3.33	3.85	3.67
B15	3.41	3.3	3.38
B16	3.17	3.35	3.33
B17	3.2	3.6	3.65
B18	3.44	3.38	3.44
B19	3.18	3.57	3.64
